A word on the IC50: it is the concentration that gives 50% inhibition. Higher therefore signals lower potency. A word on the Ki: it is the equilibrium dissociation constant of an inhibitor or competing ligand from its target.

Assay [1] concerns the target Delta opioid receptor (DOR). As to the kind of experiment: cell-based or functional assay.
Assay [2] deals with Kappa opioid receptor (KOR) (Homo sapiens (Human)) (UniProt P41145). The experiment in a line: cell-based or functional assay.
The target of another assay is Mu opioid receptor (MOR). As to the kind of experiment: cell-based or functional assay.
For assay [3], the target named is Kappa opioid receptor (KOR) (Homo sapiens (Human)) (UniProt P41145). As to the kind of experiment: HTRF Tag-Lite KOP ligand binding assay; competition against naltrindole (8 nM). On the technique in general: TR-FRET usually uses a lanthanide donor and a delayed reading to cut background.
The target is the same in assay [4]. The experiment in a line: HTRF Tag-Lite KOP ligand binding assay; competition against naltrindole (8 nM); Ki relative to Kd of naltrindole.

On to “Dyn1-7 (SEQ ID NO. 38: Tyr-Gly-Gly-Phe-Leu-Arg-Arg) (peptide)”, for which the results for the Activity (EC50, nM), cAMP assay (in assay [1]; in assay [2]; in the assay with Mu opioid receptor (MOR)) were 870 nM, 1600 nM and 3740 nM, respectively.

Turning to “SEQ ID NO. 4: NH2-Tyr-Sar-(4-NO2)Phe-Leu-Arg-DArg-NH2 (peptide)”, in assay [2], the Activity (EC50, nM), cAMP assay came to 8.4 nM; the cAMP assay (ALPHAScreen), result at 1 µM peptide came to 34.9; the cAMP assay (ALPHAScreen), result at 10 µM peptide turned out to be 40.3. In assay [3], the IC50 was 30.2 nM and the Log IC50 was -7.52. Besides, the Ki in assay [4] worked out at 2.8 nM.

The substance “SEQ ID NO. 18: NH2-Tyr-Sar-(4-NO2)Phe-Leu-Arg-NMA-NH2 (peptide)” had an Activity (EC50, nM), cAMP assay in assay [2] of 1.77 nM.

Substance “SEQ ID NO. 19: NH2-Tyr-Sar-(4-NO2)Phe-Leu-NMA-NMA-NH2 (peptide)” showed an Activity (EC50, nM), cAMP assay in assay [2] of 31.1 nM. In assay [3], this substance gave an IC50 of 1950 nM and a Log IC50 of -5.71. In addition, the Ki in assay [4] stood at 180 nM.

On to “SEQ ID NO. 20: NH2-Tyr-Sar-(4-Cl)Phe-Leu-Arg-DArg-Ile-Arg-NH2 (peptide)”, for which the KOPr desensitisation in HEK293-KOPr cells: reduction in maximal cAMP response after 6 h pretreatment at 1 µM in assay [2] was 50%.

Substance “SEQ ID NO. 24: NH2-Tyr-Sar-(4-Cl)Phe-Leu-Arg-DArg-C7H14-CONH2 (peptide)” displayed an Activity (EC50, nM), cAMP assay in assay [2] of 3.87 nM. For the same substance, in assay [3], the IC50 came out at 72.6 nM and the Log IC50 was -7.14. For the same substance, in assay [4], the Ki amounted to 6.7 nM.

Source of the values: patent publication US20240301023A1.
